According to patent US20230356187A1 (AMICOGEN, published 2023):
Numbering of substitutions follows the chain as printed. Names may count otherwise.

B1: Wild-type Protein L B3 domain (other)
chain: MPKEEVTIKANLIYADGKTQTAEFKGTFEEATAEAYRYADLLAKENGKYTVDVADKGYTLNIKFAGKEKTPEE
notes: also called wB3; wild-type B3 domain; not shown: 6xHis tag
B2: Protein L B3 domain variant EPS6(E28G/N60F) (designed binder)
chain: B1 chain with E29G, N61F
notes: not shown: 6xHis tag
B3: Protein L B3 domain variant EPS5(E28G/D51T) (designed binder)
chain: B1 chain with E29G, D52T
notes: not shown: 6xHis tag
B4: Protein L B3 domain variant EP1(E28A) (designed binder)
chain: B1 chain with E29A
notes: not shown: 6xHis tag
B5: Protein L B3 domain variant BEP2(E28G/K43P) (designed binder)
chain: B1 chain with E29G, K44P
notes: not shown: 6xHis tag
B6: Protein L B3 domain variant EP2(E28G) (designed binder)
chain: B1 chain with E29G
notes: not shown: 6xHis tag
B7: Protein L B3 domain variant EPS4(E28G/K43E) (designed binder)
chain: B1 chain with E29G, K44E
notes: not shown: 6xHis tag
B8: Protein L B3 domain variant BEP1(E28G/Y13F) (designed binder)
chain: B1 chain with Y14F, E29G
notes: not shown: 6xHis tag
B9: Protein L B3 domain variant EPS1(E28L) (designed binder)
chain: B1 chain with E29L
notes: not shown: 6xHis tag
B10: Protein L B3 domain variant mBF4 (Y13F/E28G/K43P) (designed binder)
chain: B1 chain with Y14F, E29G, K44P
notes: also called mBF monomer; not shown: 6xHis tag
B11: Protein L B3 domain variant EPS3(E28W) (designed binder)
chain: B1 chain with E29W
notes: not shown: 6xHis tag
B12: Protein L B3 domain variant EPS2(E28P) (designed binder)
chain: B1 chain with E29P
notes: not shown: 6xHis tag
B13: Protein L B3 domain variant BEP3(E28G/D51V) (designed binder)
chain: B1 chain with E29G, D52V
notes: not shown: 6xHis tag
B14: Protein L B3 domain variant BEP4(E28G/N60E) (designed binder)
chain: B1 chain with E29G, N61E
notes: not shown: 6xHis tag

How the values were obtained:
[1] = target: T1, IgG(f) protein (Herceptin scFv); assay: binder coupled to NHS-Sepharose in 96-well filter plate; bound IgG(f) eluted at pH 2.5 and read at OD280, before and after 0.3 M NaOH
T1 construct: Polypeptide of the human IgG1-based scFv region (GenBank AWW43726); Expressed from pET29a(+) (NdeI/XhoI) in E. coli and purified on Ni-NTA resin; also called recombinant immunoglobulin G fragment
T1 sequence (scFv, as listed by the source): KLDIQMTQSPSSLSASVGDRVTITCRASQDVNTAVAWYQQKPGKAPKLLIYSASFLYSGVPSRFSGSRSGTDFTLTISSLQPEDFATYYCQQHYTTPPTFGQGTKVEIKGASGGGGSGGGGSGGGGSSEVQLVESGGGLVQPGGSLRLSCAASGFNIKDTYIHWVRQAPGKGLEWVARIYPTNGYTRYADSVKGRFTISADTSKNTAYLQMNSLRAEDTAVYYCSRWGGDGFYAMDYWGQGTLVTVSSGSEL

[2] = target: T1, IgG(f) protein (Herceptin scFv); assay: binder coupled to NHS-Sepharose in 96-well filter plate; bound IgG(f) eluted and read at OD280 after 0.3 M NaOH
[3] = target: T1, IgG(f) protein (Herceptin scFv); assay: binder coupled to NHS-Sepharose in 96-well filter plate; bound IgG(f) eluted and read at OD280 after 0.3 M NaOH; reference set to 100%
[4] = target: T1, IgG(f) protein (Herceptin scFv); assay: binder coupled to NHS-Sepharose; bound IgG(f) eluted and read at OD280; relative to 0 h (100%), after 5 h in 0.3 M NaOH; reference wB3
Protocol: The library prepared in Example 5 was purified by the same manner as in Examples <1-3>, and the absorbance over time was measured by the same method as in Example 3 to compare the alkali tolerance. The absorbance over time obtained is shown in FIG. 5 as a relative value to the absorbance (100%) at the beginning (0 h).

Binder	binding result [2]	other results
B1	–	binding result [1]: binds
B2	binds	–
B3	binds	–
B4	–	binding result [1]: binds
B5	binds	–
B6	–	binding result [3]: binds
B7	binds	–
B8	binds	–
B9	binds	–
B10	–	fold increase in alkali tolerance (residual scFv binding activity after 5 hours in 0.3 M NaOH) compared to wB3 [4]: ~2.7 fold
B11	binds	–
B12	binds	–
B13	binds	–
B14	binds	–
